The text below walks through data of patent US20040023235A1 (WISTAR INSTITUTE OF ANATOMY AND BIOLOGY, published 2004).

The target in the experiment is T1, endogenous 53Bp1 (human p53-binding protein) from U2OS nuclear extracts (human, UniProt Q12888 1-1972).
T1 construct: Endogenous protein in nuclear extracts
In words: co-immunoprecipitation from U2OS nuclear extracts, western blot. On the procedure:
Nuclear extracts from mock treated U20S cells or cells exposed to 1 or 8 Gy gamma irradiation were prepared as described by Waterman et al, 1998 Nature Genet., 19:175-178. Endogenous 53BP1, Mre11, or p95/NBS were immunoprecipitated by binding 1 μg/reaction of monoclonal anti-53BP1, or 1 μg/reaction purified Mre11 or p95/NBS antisera (Calbiochem) in 1× IP buffer [25 mM Hepes (pH 7.4)/100 mM NaCl/5 mM MgCl₂/100 mM EDTA/0.2 mg/ml BSA/0.1% Tween-20] to protein-G sepharose beads (Amersham) for 1 hour. After washing three times with 1× IP buffer, 100 μg nuclear extract was added and proteins allowed to bind for 1 hour at 4° C. The beads were washed and the proteins resolved on 6% SDS-PAGE, transferred to PVDF membrane and were visualized by western blot using the antibodies described in Part A above.
In general terms: Immunoblotting shows a protein as a band on a membrane.

T1 sequence (Q12888 whole entry): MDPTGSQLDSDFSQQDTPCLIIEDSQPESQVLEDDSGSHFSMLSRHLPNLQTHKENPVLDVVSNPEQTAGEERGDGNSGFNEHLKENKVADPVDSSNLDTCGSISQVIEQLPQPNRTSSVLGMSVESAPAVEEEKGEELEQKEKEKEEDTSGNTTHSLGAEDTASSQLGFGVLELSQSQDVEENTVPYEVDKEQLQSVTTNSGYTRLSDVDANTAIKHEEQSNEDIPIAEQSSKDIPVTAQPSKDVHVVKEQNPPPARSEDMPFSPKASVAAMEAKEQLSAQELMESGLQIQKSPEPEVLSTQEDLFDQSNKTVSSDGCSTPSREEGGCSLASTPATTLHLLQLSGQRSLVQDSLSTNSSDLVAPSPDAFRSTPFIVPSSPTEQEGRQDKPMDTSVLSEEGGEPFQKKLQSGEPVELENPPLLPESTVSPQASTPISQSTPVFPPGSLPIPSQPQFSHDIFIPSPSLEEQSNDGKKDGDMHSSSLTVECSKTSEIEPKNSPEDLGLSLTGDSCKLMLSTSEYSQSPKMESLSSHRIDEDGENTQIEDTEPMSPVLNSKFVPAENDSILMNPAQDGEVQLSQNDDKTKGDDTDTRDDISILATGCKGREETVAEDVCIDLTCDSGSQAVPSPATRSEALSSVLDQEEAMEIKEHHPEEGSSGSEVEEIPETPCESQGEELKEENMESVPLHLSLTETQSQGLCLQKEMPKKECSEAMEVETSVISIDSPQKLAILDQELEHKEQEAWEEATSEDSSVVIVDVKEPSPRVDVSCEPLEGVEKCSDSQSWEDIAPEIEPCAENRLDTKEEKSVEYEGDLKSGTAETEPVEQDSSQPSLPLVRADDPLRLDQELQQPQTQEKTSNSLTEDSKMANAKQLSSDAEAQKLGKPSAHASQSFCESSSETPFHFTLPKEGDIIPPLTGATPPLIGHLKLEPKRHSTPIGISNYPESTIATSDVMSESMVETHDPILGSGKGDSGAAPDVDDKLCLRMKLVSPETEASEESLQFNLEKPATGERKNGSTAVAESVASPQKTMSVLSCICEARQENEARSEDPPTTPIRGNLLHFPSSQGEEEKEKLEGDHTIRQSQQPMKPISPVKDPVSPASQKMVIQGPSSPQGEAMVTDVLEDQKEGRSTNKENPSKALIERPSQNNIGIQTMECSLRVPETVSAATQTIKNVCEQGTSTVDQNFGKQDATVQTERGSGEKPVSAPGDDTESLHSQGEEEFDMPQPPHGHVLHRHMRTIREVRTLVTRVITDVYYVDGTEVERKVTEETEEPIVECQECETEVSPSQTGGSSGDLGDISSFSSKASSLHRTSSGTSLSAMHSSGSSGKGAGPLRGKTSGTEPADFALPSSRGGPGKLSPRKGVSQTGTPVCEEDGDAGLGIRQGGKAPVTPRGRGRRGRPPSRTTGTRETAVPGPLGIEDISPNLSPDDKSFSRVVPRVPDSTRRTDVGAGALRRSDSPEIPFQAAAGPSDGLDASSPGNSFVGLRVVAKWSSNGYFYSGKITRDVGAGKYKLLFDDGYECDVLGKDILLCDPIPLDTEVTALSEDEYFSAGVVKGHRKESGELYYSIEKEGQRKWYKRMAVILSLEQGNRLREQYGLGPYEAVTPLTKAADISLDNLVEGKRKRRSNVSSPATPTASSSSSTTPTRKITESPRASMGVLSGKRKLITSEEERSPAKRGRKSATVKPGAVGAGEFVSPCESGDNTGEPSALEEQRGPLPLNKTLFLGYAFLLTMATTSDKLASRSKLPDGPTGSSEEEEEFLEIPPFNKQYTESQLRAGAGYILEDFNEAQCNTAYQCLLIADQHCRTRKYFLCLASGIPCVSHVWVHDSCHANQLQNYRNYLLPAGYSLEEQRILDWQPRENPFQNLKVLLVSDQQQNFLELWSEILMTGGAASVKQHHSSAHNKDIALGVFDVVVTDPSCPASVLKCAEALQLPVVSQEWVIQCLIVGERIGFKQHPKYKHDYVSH

B1: Rad50 (other, UniProt Q92878 1-1312, looked up)
chain: MSRIEKMSILGVRSFGIEDKDKQIITFFSPLTILVGPNGAGKTTIIECLKYICTGDFPPGTKGNTFVHDPKVAQETDVRAQIRLQFRDVNGELIAVQRSMVCTQKSKKTEFKTLEGVITRTKHGEKVSLSSKCAEIDREMISSLGVSKAVLNNVIFCHQEDSNWPLSEGKALKQKFDEIFSATRYIKALETLRQVRQTQGQKVKEYQMELKYLKQYKEKACEIRDQITSKEAQLTSSKEIVKSYENELDPLKNRLKEIEHNLSKIMKLDNEIKALDSRKKQMEKDNSELEEKMEKVFQGTDEQLNDLYHNHQRTVREKERKLVDCHRELEKLNKESRLLNQEKSELLVEQGRLQLQADRHQEHIRARDSLIQSLATQLELDGFERGPFSERQIKNFHKLVRERQEGEAKTANQLMNDFAEKETLKQKQIDEIRDKKTGLGRIIELKSEILSKKQNELKNVKYELQQLEGSSDRILELDQELIKAERELSKAEKNSNVETLKMEVISLQNEKADLDRTLRKLDQEMEQLNHHTTTRTQMEMLTKDKADKDEQIRKIKSRHSDELTSLLGYFPNKKQLEDWLHSKSKEINQTRDRLAKLNKELASSEQNKNHINNELKRKEEQLSSYEDKLFDVCGSQDFESDLDRLKEEIEKSSKQRAMLAGATAVYSQFITQLTDENQSCCPVCQRVFQTEAELQEVISDLQSKLRLAPDKLKSTESELKKKEKRRDEMLGLVPMRQSIIDLKEKEIPELRNKLQNVNRDIQRLKNDIEEQETLLGTIMPEEESAKVCLTDVTIMERFQMELKDVERKIAQQAAKLQGIDLDRTVQQVNQEKQEKQHKLDTVSSKIELNRKLIQDQQEQIQHLKSTTNELKSEKLQISTNLQRRQQLEEQTVELSTEVQSLYREIKDAKEQVSPLETTLEKFQQEKEELINKKNTSNKIAQDKLNDIKEKVKNIHGYMKDIENYIQDGKDDYKKQKETELNKVIAQLSECEKHKEKINEDMRLMRQDIDTQKIQERWLQDNLTLRKRNEELKEVEEERKQHLKEMGQMQVLQMKSEHQKLEENIDNIKRNHNLALGRQKGYEEEIIHFKKELREPQFRDAEEKYREMMIVMRTTELVNKDLDIYYKTLDQAIMKFHSMKMEEINKIIRDLWRSTYRGQDIEYIEIRSDADENVSASDKRRNYNYRVVMLKGDTALDMRGRCSAGQKVLASLIIRLALAETFCLNCGIIALDEPTTNLDRENIESLAHALVEIIKSRSQQRNFQLLVITHDEDFVELLGRSEYVEKFYRIKKNIDQCSEIVKCSVSSLGFNVH
notes: Member of the Mre11/Rad50/NBS complex
For B1, the binding result is reported as “no binding”.

B2: Mre11 (other, UniProt P49959 2-708, looked up)
chain: STADALDDENTFKILVATDIHLGFMEKDAVRGNDTFVTLDEILRLAQENEVDFILLGGDLFHENKPSRKTLHTCLELLRKYCMGDRPVQFEILSDQSVNFGFSKFPWVNYQDGNLNISIPVFSIHGNHDDPTGADALCALDILSCAGFVNHFGRSMSVEKIDISPVLLQKGSTKIALYGLGSIPDERLYRMFVNKKVTMLRPKEDENSWFNLFVIHQNRSKHGSTNFIPEQFLDDFIDLVIWGHEHECKIAPTKNEQQLFYISQPGSSVVTSLSPGEAVKKHVGLLRIKGRKMNMHKIPLHTVRQFFMEDIVLANHPDIFNPDNPKVTQAIQSFCLEKIEEMLENAERERLGNSHQPEKPLVRLRVDYSGGFEPFSVLRFSQKFVDRVANPKDIIHFFRHREQKEKTGEEINFGKLITKPSEGTTLRVEDLVKQYFQTAEKNVQLSLLTERGMGEAVQEFVDKEEKDAIEELVKYQLEKTQRFLKERHIDALEDKIDEEVRRFRETRQKNTNEEDDEVREAMTRARALRSQSEESASAFSADDLMSIDLAEQMANDSDDSISAATNKGRGRGRGRRGGRGQNSASRGGSQRGRADTGLETSTRSRNSKTAVSASRNMSIIDAFKSTRQQPSRNVTTKNYSEVIEVDESDVEEDIFPTTSKTDQRWSSTSSSKIMSQSQVSKGVDFESSEDDDDDPFMNTSSLRRNRR
notes: as for B1
In the case of B2, the binding result is on record as “no binding”.
